Residue numbers refer to the chain shown, from its start.
B1: CD40L-99 (VHH)
VHH: EVQLVESGGGLVQPGGSLRLSCAASGFTPDDYAMGWFRQAPGKEREFVADIMPYGSTEYADSVKGRFTISADNSKNTAYLQMNSLKPEDTAVYYCARRDAGIDFYYMDVWGQGTLVTVSS
B2: CD40L-103 (VHH)
VHH: EVQLVESGGGLVQPGGSLRLSCAASGRSFSSVYAMGWFRQAPGKEREFIAVIYWRDGSSLYADSVKGRFTISADNSKNTAYLQMNSLKPEDTAVYYCAAEPYGSGSSLISEYDWGQGTLVTVSS
B3: CD40L-105 (VHH)
VHH: EVQLVESGGGLVQPGGSLRLSCAASGITFSSRTMGWFRQAPGKEREFVAAIRSSGGLFYADSVKGRFTISADNSKNTAYLQMNSLKPEDTAVYYCAAQDRRHGDYYTFDYHWGQGTLVTVSS
B4: CD40L-115 (VHH)
VHH: EVQLVESGGGLVQPGGSLRLSCAASGRTFSRYEMGWFRQAPGKEREFVAAVTEDGSTYYADSVKGRFTISADNSKNTAYLQMNSLKPEDTAVYYCAIAHGSSTYNWGQGTLVTVSS
B5: CD40L-114 (VHH)
VHH: EVQLVESGGGLVQPGGSLRLSCAASGRTFSPYIMGWFRQAPGKEREFVAEIGWRDTTLYADSVKGRFTISADNSKNTAYLQMNSLKPEDTAVYYCAARRGGDYLPTDWGQGTLVTVSS
B6: CD40L-178 (antibody, V domains shown)
VH: EVQLLESGGGLVQPGGSLRLSCAASGFTFEDYQMGWVRQAPGKGLEWVSSITSEGGSTYYADSVKGRFTISRDNSKNTLYLQMNSLRAEDTAVYYCAKPGRDFDYWGQGTLVTVSS
VL: DIQMTQSPSSLSASVGDRVTITCRASQPIVRNLRWYQQKPGKAPKLLIYGASSLESGVPSRFSGSGSGTDFTLTISSLQPEDFATYYCLQNVANPATFGQGTKVEIK
notes: IgG2
B7: CD40L-201 (antibody, V domains shown)
VH: B6 VH with E30A, D31S, Q33E, G35T, G100D, R101V, D102L
VL: DIQMTQSPSSLSASVGDRVTITCSGDNLRGYYASWYQQKPGKAPKLLIYGTSDLQSGVPSRFSGSGSGTDFTLTISSLQPEDFATYYCQAWDTNTVIFGQGTKVEIK
notes: IgG2
B8: CD40L-187 (antibody, V domains shown)
VH: B6 VH with T28D, E30S, Q33E, G35S, R101K, D102N
VL: DIQMTQSPSSLSASVGDRVTITCRASSSVSYMHWYQQKPGKAPKLLIYHTSRLQSGVPSRFSGSGSGTDFTLTISSLQPEDFATYYCSAFTHNSDVFGQGTKVEIK
notes: IgG2
B9: CD40L-185 (antibody, V domains shown)
VH: B6 VH with T28D, E30S, Q33E, G35S, G100D, R101Q, D102F, F103L
VL: DIQMTQSPSSLSASVGDRVTITCRASQTIERRLNWYQQKPGKAPKLLIYGTTSLESGVPSRFSGSGSGTDFTLTISSLQPEDFATYYCHHWHHNPTHHETNVFGQGTKVEIK
notes: IgG2
B10: CD40L-189 (antibody, V domains shown)
VH: B6 VH with T28D, E30S, Q33E, G35S, G100D, R101K, D102T
VL: DIQMTQSPSSLSASVGDRVTITCSGDTLGGKYAWWYQQKPGKAPKLLIYDNTNRPSGVPSRFSGSGSGTDFTLTISSLQPEDFATYYCQAWDNSAVIFGQGTKVEIK
notes: IgG2
B11: CD40L-194 (antibody, V domains shown)
VH: B6 VH with Y32T, Q33E, G35D, G100D, R101V, D102L
VL: DIQMTQSPSSLSASVGDRVTITCRASQNINYYLNWYQQKPGKAPKLLIYQNDKRPSGVPSRFSGSGSGTDFTLTISSLQPEDFATYYCQQSYENPLTFGQGTKVEIK
notes: IgG2
B12: CD40L-195 (antibody, V domains shown)
VH: B6 VH with T28D, E30S, Q33E, G35S, D102L
VL: DIQMTQSPSSLSASVGDRVTITCSGDNIGSIYASWYQQKPGKAPKLLIYQNDKRPSGVPSRFSGSGSGTDFTLTISSLQPEDFATYYCQQGYNSNDVDNVFGQGTKVEIK
notes: IgG2
B13: CD40L-202 (antibody, V domains shown)
VH: B6 VH with E30A, D31S, Q33E, G35T, G100D, R101V, D102L
VL: DIQMTQSPSSLSASVGDRVTITCRASQDIYQNLDWYQQKPGKAPKLLIYQDFKRPSGVPSRFSGSGSGTDFTLTISSLQPEDFATYYCQAWDNGAAVFGQGTKVEIK
notes: IgG2
B14: CD40L-179 (antibody, V domains shown)
VH: B6 VH with T28D, E30S, Q33E, G35S, G100D, R101V, D102L
VL: DIQMTQSPSSLSASVGDRVTITCRASQSILSYLNWYQQKPGKAPKLLIYGTSKLASGVPSRFSGSGSGTDFTLTISSLQPEDFATYYCQSYDNDFYGTVFGQGTKVEIK
notes: IgG2
B15: CD40L-186 (antibody, V domains shown)
VH: B6 VH with T28D, E30S, Q33E, G35S, G100D, R101V, D102L
VL: DIQMTQSPSSLSASVGDRVTITCRASQGVRTSLAWYQQKPGKAPKLLIYENNNRPSGVPSRFSGSGSGTDFTLTISSLQPEDFATYYCSQSTHVPPTFGQGTKVEIK
notes: IgG2
B16: CD40L-197 (antibody, V domains shown)
VH: B6 VH with T28D, E30S, Q33E, G35S
VL: DIQMTQSPSSLSASVGDRVTITCRTSQDIGNYLNWYQQKPGKAPKLLIYYDVNRPSGVPSRFSGSGSGTDFTLTISSLQPEDFATYYCQPSFYFPYTFGQGTKVEIK
notes: IgG2
B17: CD40L-74 (VHH)
VHH: EVQLVESGGGLVQPGGSLRLSCAASGRTFSSYYMGWFRQAPGKERELVAVIYTSDGSTYYADSVKGRFTISADNSKNTAYLQMNSLKPEDTAVYYCAAWLNGGNRWGQGTLVTVSS
B18: CD40L-82 (VHH)
VHH: B17 VHH with T28I, S31T, Y33F, L47G, V50T, S54G, D55N, S57Y, Y59L
B19: CD40L-106 (VHH)
VHH: EVQLVESGGGLVQPGGSLRLSCAASGLTFNDYAMGWFRQAPGKEREFVAGITNGGGRTSYADSVKGRFTISADNSKNTAYLQMNSLKPEDTAVYYCAADVGPTVKWGQGTLVTVSS
B20: CD40L-73 (VHH)
VHH: EVQLVESGGGLVQPGGSLRLSCAASGFTLGNYAMGWFRQAPGKEREFVASITSYGDTYYADSVKGRFTISADNSKNTAYLQMNSLKPEDTAVYYCARDGYTYGVDYWGQGTLVTVSS
B21: CD40L-98 (VHH)
VHH: EVQLVESGGGLVQPGGSLRLSCAASGITFKRYDMGWFRQAPGKEREVVAVIYTSDGSTYYADSVKGRFTISADNSKNTAYLQMNSLKPEDTAVYYCAADRDRYRDGMGPMTTTDFRWGQGTLVTVSS
B22: CD40L-203 (antibody, V domains shown)
VH: EVQLLESGGGLVQPGGSLRLSCAASGGYNFRDYMHWVRQAPGKGLEWVAEIRNKANNHATKYADSVKGRFTISRDNSKNTLYLQMNSLRAEDTAVYYCAKNLGQGFDYWGQGTLVTVSS
VL: DIQMTQSPSSLSASVGDRVTITCRASQSISSYVNWYQQKPGKAPKLLIYANTNGPSGVPSRFSGSGSGTDFTLTISSLQPEDFATYYCQSYDNSVRGSRVFGQGTKVEIK
notes: IgG2
B23: CD40L-183 (antibody, V domains shown)
VH: EVQLLESGGGLVQPGGSLRLSCAASGGYNFRDYMHWVRQAPGKGLEWVSSIVSSGGLTLYADSVKGRFTISRDNSKNTLYLQMNSLRAEDTAVYYCAKDLGQGFDYWGQGTLVTVSS
VL: DIQMTQSPSSLSASVGDRVTITCTGDKLAEKYVSWYQQKPGKAPKLLIYQNDKRPSGVPSRFSGSGSGTDFTLTISSLQPEDFATYYCQQSYSRPYTFGQGTKVEIK
notes: IgG2
B24: CD40L-80 (VHH)
VHH: EVQLVESGGGLVQPGGSLRLSCAASGFTFDDYDMGWFRQAPGKERELVASITSGGSTNYADSVKGRFTISADNSKNTAYLQMNSLKPEDTAVYYCAIPHGIDLYTFDWGQGTLVTVSS
B25: CD40L-111 (VHH)
VHH: EVQLVESGGGLVQPGGSLRLSCAASGDTSEINDMGWFRQAPGKEREFVAAIYPSGRNAYYADSVKGRFTISADNSKNTAYLQMNSLKPEDTAVYYCAIPHGIAGRITWGQGTLVTVSS
B26: CD40L-76 (VHH)
VHH: EVQLVESGGGLVQPGGSLRLSCAASGRTFSTSAMGWFRQAPGKEREWVATIYSRSGGGTAYADSVKGRFTISADNSKNTAYLQMNSLKPEDTAVYYCAKEGYDWGDYVMDYWGQGTLVTVSS
B27: CD40L-102 (VHH)
VHH: EVQLVESGGGLVQPGGSLRLSCAASGLTFSRYEMGWFRQAPGKEREFVAAVTEDGSIYADSVKGRFTISADNSKNTAYLQMNSLKPEDTAVYYCAAEIGYYSGGTYFSSEAWGQGTLVTVSS
B28: CD40L-84 (VHH)
VHH: EVQLVESGGGLVQPGGSLRLSCAASGRISNINIMGWFRQAPGKEREFVAGISQSGGSTAYADSVKGRFTISADNSKNTAYLQMNSLKPEDTAVYYCSRDEKLGPYYFDYWGQGTLVTVSS
B29: CD40L-91 (VHH)
VHH: EVQLVESGGGLVQPGGSLRLSCAASGGTFSSFPMGWFRQAPGKEREFVAAISWSEDNTYYADSVKGRFTISADNSKNTAYLQMNSLKPEDTAVYYCASRLAFCGRDCYLPTDWGQGTLVTVSS
B30: CD40L-96 (VHH)
VHH: B29 VHH with S31A, F47W, S52T, W53S, E55G, N57S, T58I, A97T, D112T

Target: T1, CD40L over-expressed on Expi293 cells (UniProt P29965 1-261, limits assumed)
T1 construct: whole, on cells; also called cytokine over-expressing Expi293 cells
T1 sequence (looked up): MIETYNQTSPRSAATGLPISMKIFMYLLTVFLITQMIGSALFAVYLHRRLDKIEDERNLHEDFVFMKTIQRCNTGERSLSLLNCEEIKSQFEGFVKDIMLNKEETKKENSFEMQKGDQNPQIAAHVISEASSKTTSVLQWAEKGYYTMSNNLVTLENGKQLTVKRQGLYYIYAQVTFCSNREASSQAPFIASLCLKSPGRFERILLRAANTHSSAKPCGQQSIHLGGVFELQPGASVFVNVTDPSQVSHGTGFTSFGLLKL
Assay: flow cytometry, 100 nM antibody, CD40L-Expi293 vs parent Expi293 cells;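 also: ratio is the mean fluorescence intensity on CD40L-overexpressing Expi293 cells divided by the mean fluorescence intensity on parental Expi293 cells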
Protocol: All incubations and washes were in buffer containing PBS+1% BSA. MFI Ratio is defined by the mean fluorescence intensity (MFI) of the cytokine over-expressing Expi293 cell over the Expi293 parent cell. […] EC50 was calculated in GraphPad Prism.

Row | Binder | 100 nM FACS (MFI Ratio) [ratio]
1 | B1 | 3.1
2 | B2 | 3.6
3 | B3 | 4.5
4 | B4 | 16.8
5 | B5 | 7.3
6 | B6 | 6.4
7 | B7 | 6.9
8 | B8 | 2.3
9 | B9 | 4.5
10 | B10 | 4.7
11 | B11 | 7.3
12 | B12 | 16.8
13 | B13 | 14.2
14 | B14 | 3.1
15 | B15 | 2.7
16 | B16 | 3.6
17 | B17 | 8.7
18 | B18 | 18.6
19 | B19 | 2.7
20 | B20 | 10.9
21 | B21 | 6.4
22 | B22 | 6.7
23 | B23 | 3.6
24 | B24 | 4.6
25 | B25 | 9.7
26 | B26 | 9.6
27 | B27 | 1.8
28 | B28 | 12.7
29 | B29 | 4.3
30 | B30 | 3.7

— patent US20230265179A1 (TWIST BIOSCIENCE, published 2023)
